B1: angiotensinogen (AGT): N14Q (protein)
parent chain: MAPAGVSLRATILCLLAWAGLAAGDRVYIHPFHLVIHNESTCEQLAKANAGKPKDPTFIPAPIQAKTSPVDEKALQDQLVLVAAKLDTEDKLRAAMVGMLANFLGFRIYGMHSELWGVVHGATVLSPTAVFGTLASLYLGALDHTADRLQAILGVPWKDKNCTSRLDAHKVLSALQAVQGLLVAQGRADSQAQLLLSTVVGVFTAPGLHLKQPFVQGLALYTPVVLPRSLDFTELDVAAEKIDRFMQAVTGWKTGCSLMGASVDSTLAFNTYVHFQGKMKGFSLLAEPQEFWVDNSTSVSVPMLSGMGTFQHWSDIQDNFSVTQVPFTESACLLLIQPHYASDLDKVEGLTFQQNSLNWMKKLSPRTIHLTMPQLVLQGSYDLQDLLAQAELPAILHTELNLQKLSNDRIRVGEVLNSIFFELEADEREPTESTQQLNKPEVLEVTLNRPFLFAVYDQSATALHFLGRVANPLSTA
B2: angiotensinogen (AGT): N4 (protein)
parent chain: B1 parent chain

Experiment: steady-state kinetics, released Ang I immunoassay
Conditions: glycan lost; control: fully glycosylated WT AGT

Protein	other: proteolytic processing, kcat_Km
B1	increases, 0.64 ± 0.03 vs 0.25 ± 0.01, 0.64 ± 0.03 (252%)
B2	increases, 0.65 ± 0.08 vs 0.25 ± 0.01, 0.65 ± 0.08 (255%)
